Measurements as given in patent publication US20230312682A1 (published 2023).

Columns and labels:
[1] = biological target: T1, CD47-His (human, UniProt Q08722 19-139); test: ELISA, plate coated with CD47-His, anti-human Fc-HRP detection
T1 construct: also called Human CD47-His; SIRPα-Fc fusion protein's ligand CD47-His
Description: Method: Human CD47-His prepared in Example 1.3 was diluted to 100 ng/mL with a sodium carbonate buffer, and then the dilution was added to a microplate at 100 μL per well. The plate was incubated at room temperature for 2 h and washed with PBST. The plate was blocked by adding PBST containing 1% bovine serum albumin (BSA) to each well and incubated at room temperature for 1 h. The plate was washed twice with PBST, and serially diluted antibodies or fusion proteins were added. The plate was incubated for half an hour and washed twice with PBST. A properly diluted HRP-labeled goat anti-human (Fc-Specific) secondary antibody was added, and the plate was incubated for half an hour. After the plate was washed, a color developing solution was added for color development, and the color development was terminated with a stop solution. The OD450 was read using on a microplate reader. The data were analyzed in GraphPad Prism 6 and plotted, and EC₅₀ was calculated.

[2] = biological target: T2, CD47 on the surfaces of cells (human, UniProt Q08722 19-323); test: flow cytometry on Daudi cells, FITC anti-human Fc
T2 construct: whole, on cells; The cell type is named in the assay or readout of each row; also called CD47 on the surfaces of Daudi cells; CD47 on the surface of a cell
Description: The binding capacity of the prepared SIRP-Fc-IgG1 mutants to CD47 on the surfaces of Daudi cells (human lymphoma cells) was determined by flow cytometry. Experimental procedure: After being counted, Daudi cells were inoculated into a 96-well round-bottom culture plate at 2E5 cells/150 μL by using a PBS solution containing 1% bovine serum albumin (BSA). To the 96-well plate described above were added 50 μL of SIRPα-Fc fusion protein mutants serially diluted with the PBS solution. The plate was incubated at room temperature for 1 h and then centrifuged, and the supernatant was discarded. Then the cells were washed twice with PBS. An FITC-labeled goat anti-human (Fc-Specific) antibody (1:1000 diluted with PBS containing 1% BSA) was added. The plate was incubated at room temperature for half an hour and centrifuged, and the cells were washed and then tested for mean fluorescence intensity (MFI) in the FITC channel on a flow cytometer (CytoFLEX Cytometer System, purchased from Beckman Coulter). The experimental data were processed using the software provided with the flow cytometer, and the mean fluorescence intensity was calculated. The data were analyzed and plotted in GraphPad Prism 6, and EC₅₀ was calculated.

[3] = biological target: T2, CD47 on the surfaces of cells; test: cell-based or functional assay
[4] = biological target: T1, CD47-His; test: SPR (Biacore 8K), captured on Protein A chip, CD47-His as analyte
Description: Biacore is a method commonly used for molecular interaction analysis based on the principle of surface plasmon resonance (SPR for short). Here, Biacore was used to determine the affinity of the SIRP mutants described above and anti-CD47 antibodies for the extracellular end of CD47. Experimental method and procedure: The SIRP mutant or anti-CD47 antibodies were diluted to a concentration of 1 μg/mL with HBS-EP⁺ buffer (pH 7.4, purchased from Cytiva, catalog No. BR-1006-69). […] A 6 M solution of guanidine hydrochloride was used as a regeneration buffer. Sensor Chip Protein A (purchased from Cytiva, catalog No. 29-1275-55) was used to capture antibody on Biacore 8K (purchased from GE Healthcare). Then CD47-His was used as an analyte and allowed to flow over the chip, and an association-dissociation curve was obtained. After the chip was regenerated with the regeneration buffer, another cycle was carried out. The data were analyzed using Biacore 8K Evaluation Software.

[5] = biological target: T2, CD47 on the surfaces of cells; test: cell-based or functional assay; remark: listed apart in the source

B1: anti-CD47B-Hu-IgG1 (antibody, V domains shown)
VH: QVQLVQSGAEVKKPGASVKVSCKASGYTFANHVIHWVRQAPGQGLEWMGYIYPYNDGTKYNEKFKDRVTLTSDKSTSTVYMELSSLRSEDTAVYYCARGGYYTYDDWGQGTLVTVSS
VL: DVVMTQSPLSLPVTLGQPASISCRSSQSLVHSNGKTYLHWYQQRPGQSPRLLIYKVSNRFSGVPDRFSGSGSGTDFTLKISRVEAEDVGVYYCSQSTHVPYTFGQGTKVEIKR
notes: Human IgG1 / kappa
B1 was tested, and the EC50 [1] was 55.8 pM, the “height of top plateau” value [1] was 0.795 OD450 and the EC50 [2] was 189 pM. For the same binder, the “height of top plateau” value [2] was 3070 MFI, the “ADCP of Daudi cells by human macrophages, EC50” value [3] was 19 pM and the “ADCP of Daudi cells by human macrophages, Top (highest degree of ADCP by curve fitting)” value [3] was 12.5. For the same binder, the Kd [4] was 104 pM, the koff [4] was 0.00012 s⁻¹ and the kon [4] was 1.16e+06 M⁻¹ s⁻¹. For the same binder, the “ADCC on Daudi cells with human PBMCs, EC50” value [5] was 197 pM and the “ADCC on Daudi cells with human PBMCs, Top (highest degree of ADCC by curve fitting)” value [5] was 29.
